Test [1] has as its target α-elapitoxin (Dendroaspis polylepis, UniProt P01396). The test is described as follows: SPR; BIAcore T100; […]; 10 mM HEPES, 150 mM NaCl, 3 mM EDTA, 0.05% P20, pH 7.4; 40 µL/min; 1:1 Langmuir model, global fit. The following applies: both partners purified. A general note: SPR reads the build-up and loss of mass on a sensor chip optically.
The target of test [2] is α-cobratoxin (Naja kaouthia (monocled cobra), UniProt P01391). The description is as above. To be noted: both partners purified.
For test [3], the target named is T1, α-bungarotoxin (Bungarus multicinctus, UniProt P60615).
T1 construct: source: bought: Latoxan SAS (L8115)
Nature of the test: SPR. The following applies: both partners purified.

Test [4] has as its target T2, long neurotoxin 2 from N. melanoleuca (Naja melanoleuca, UniProt P01388).
T2 construct: source: in SEC fractions of N. melanoleuca whole venom (Latoxan L1318)
Nature of the test: native MS. To be noted: one partner purified.

Test [5] deals with long neurotoxin 4 from N. naja (Naja naja, UniProt P25672). Nature of the test: native MS. To be noted: one partner purified.
In test [6] the target is T3, long neurotoxin from N. melanoleuca (Naja melanoleuca, UniProt P0DQQ2).
T3 construct: source: in SEC fractions of N. melanoleuca whole venom (Latoxan L1318)
Nature of the test: native MS. To be noted: one partner purified.

The target of test [7] is T4, long neurotoxin 2 from O. hannah (Ophiophagus hannah, UniProt A8N285).
T4 construct: source: in SEC fractions of O. hannah whole venom (Latoxan L1357)
The test is described as follows: native MS. To be noted: one partner purified.

As a reminder, the Kd is the concentration at which binding is half-saturated. A lower Kd goes with higher affinity. For orientation: koff means the first-order rate constant of dissociation.

B1: 2554_01_D11 Fab (Fab, V domains shown)
VH: QVQLVQSGAEVKKPGSSVKVSCKASGGTFSSYAISWVRQAPGQGLEWMGGIIPIFGTANYAQKFQGRVTITADESTSTAYMELRSLRSDDTAVYYCARDNLGYCSGGSCYSDYYYYYMDVWGQGTLVTVSS
VL: NFMLTQPRSVSESPGKTVTISCTRSSGSIGSDYVHWYQQRPGSSPTTVIYEDNQRPSGVPDRFSGSIDSSSNSASLTISGLKTEDEADYYCQSYDRSNHEVVFGGGTKLTVL
notes: source: Expi293 cells, transient, purified (anti-CH1 resin)
In test [1], B1 gave a Kd of 1.69 nM and a koff of 0.000177 s⁻¹. In test [2], this molecule displayed a Kd of 1.78 nM and a koff of 0.000229 s⁻¹. Further, the binding result in test [3] is on record as “binds”.

B2: 2554_01_D11 IgG (antibody, V domains shown)
VH: QVQLVQSGAEVKKPGSSVKVSCKASGGTFSSYAISWVRQAPGQGLEWMGGIIPIFGTANYAQKFQGRVTITADESTSTAYMELRSLRSDDTAVYYCARDNLGYCSGGSCYSDYYYYYMDVWGQGTLVTVSS
VL: NFMLTQPRSVSESPGKTVTISCTRSSGSIGSDYVHWYQQRPGSSPTTVIYEDNQRPSGVPDRFSGSIDSSSNSASLTISGLKTEDEADYYCQSYDRSNHEVVFGGGTKLTVL
notes: also called IgG 2554_01_D11; copies: 2 + 2
Consider B2, for which the binding result in test [4], in test [5], in test [6] and in test [7] was “binds” throughout.

B3: 2555_01_A01 Fab (Fab, V domains shown)
VH: QVQLVQSGAEVKKPGSSVKVSCKASGGTFSSYAISWVRQAPGQGLEWMGGIIPIFGTANYAQKFQGRVTITADESTSTAYMELRSLRSDDTAVYYCARDNLGYCSGGSCYSDYYYYYMDVWGQGTLVTVSS
VL: SYELTQPPSVSVAPGRTATITCEGDNIGQQIVHWYQQKPGQAPVAVISSDSDRPSGIPERFSGSNSGNTATLTISRVEAGDEADYYCQVWDSGSDHVVFGGGTKVTVL
notes: as for B1
In test [1], B3 showed a Kd of 1.81 nM and a koff of 0.000181 s⁻¹. In test [2], this molecule had a Kd of 8.41 nM and a koff of 0.0017 s⁻¹.

Source of the values: article PMC9908967 (Nature Communications, 2023).
